The record followed here is patent US11319601B2, “Cell based assay” (Medical Diagnostic Laboratories, L.L.C., priority 2017, dated 2022).

Entries after “also recorded” stand apart in the source; their conditions may differ.

Test [1] concerns the target T1, HER2 and HER3 receptors (Homo sapiens, UniProt P04626+P21860).
T1 construct: expressed in transfected cells; host or cells: HEK293
Put plainly: ERK-Luc / JNK-Luc / 6×JNK-Luc reporters in HEK293 cells with HER3 and HER2, treated with NRG1. The test is classed as cell-based. Here is the method: (§1) In order to characterize the specificity of activation of ERK-Luc and JNK-Luc reporters upon treatment of HER3 ligand, ERK-Luc or JNK-Luc was co-transfected with expression plasmids of HER3 and wild-type or kinase-dead HER2 receptors into the HEK293 cells. After 24 hours, the transfected cells were treated with NRG1 (HER3 receptor ligand). The luciferase reporter activity of the transfected cells was measured by Nano-Glo® Luciferase Assay (Promega). In FIG. 13A, no difference in ERK-Luc reporter activity was found between the cells transfected with wild-type HER2 and kinase-dead HER2 after the treatment of NRG1. […] However, the activity of JNK-Luc reporter was reduced in the cells transfected with kinase-dead HER2 compared to the cells transfected with wild-type HER2 (FIG. 13B).
(§2) In order to examine the dose response of NRG1 in the activation of JNK-Luc reporters, JNK-Luc with expression plasmids of HER3 and wild-type HER2 receptors were co-transfected into the HEK293 cells. After 24 hours, the transfected cells were treated with a serial dilution of NRG1 (HER3 receptor ligand) for 6 hours. The luciferase reporter activity of the transfected cells was measured by Nano-Glo® Luciferase Assay (Promega).
(§3) In the previous example, the JNK-Luc reporter contained 3 copies of AP-1 binding site. We observed around 2.6 fold induction of reporter activity when the transfected cells were treated with 100 ng/ml of NRG1 (FIG. 14). In order to enhance the activation of reporter activity, the AP-1 binding site was increased from 3 copies to 6 copies. 6×JNK-Luc was co-transfected with expression plasmids of HER3 and wild-type HER2 receptors into the HEK293 cells. After 24 hours, the transfected cells were treated with 100 ng/ml of NRG1 (HER3 receptor ligand) for 6 hours. The luciferase reporter activity of the transfected cells was measured by Nano-Glo® Luciferase Assay (Promega). In FIG. 15, the 6×JNK-Luc reporter was activated by the treatment of NRG1 only when both HER2 and HER3 receptors were expressed (FIG. 15). Approximately a 4.2 fold induction of reporter activity was found.
(§4) For cell transfection experiments, HEK293 cells (ATCC) were plated at density of 4-8×10^4 cells per well (96-well plates) or 1-2×10^4 cells per well (384-well plates) in phenol red-free MEM containing 10% FBS and antibiotics. Either DNA plasmid or linear DNA was mixed with TransIT-293 transfection reagent (Mirus Bio LLC). Once cells were trypsinized, DNA transfection mix was added. The cells were then incubated for 24 or 48 hours.

Test [2] concerns HER2 and HER3 receptors. The description is as above. The test is classed as cell-based, human. Particulars: HER3 plus wild-type or kinase-dead HER2; HEK293. Here is the method:
as §1, §2, §3, §4

For “NRG1: neuregulin-1, HER3 receptor ligand”, the “induction of 6×JNK-Luc reporter activity” value with HER2 and HER3 receptors [1] (100 ng/ml of NRG1, 6 hours, HEK293 with HER2 and HER3) is reported as ~4.2 fold. In addition, the “induction of JNK-Luc reporter activity (3 copies of AP-1 binding site)” value in the test with HER2 and HER3 receptors [1] (100 ng/ml of NRG1, HEK293 with HER2 and HER3) was “around 2.6 fold”. Also, the JNK-Luc reporter activation result with HER2 and HER3 receptors [1] (HER3 plus HER2, HEK293, serial dilution 6 hours) was “activated JNK-Luc reporter in a HER2's kinase dependent manner; also recorded: dose dependent activation”. Besides, the ERK-Luc reporter activation result in the test on HER2 and HER3 receptors [2] is recorded as “effectively activated”.
